This note sets out measurements from patent US20220064648, “NOVEL X-[…] FOR THE USE IN DETECTION OF SNAP25” (Galderma Holding S.A., published 2022).

Sequences and labels used below:
T1: SNAP25 Peptide 2 (PEP2) (Homo sapiens, UniProt P60880 SEQ:1-37)
T1 chain: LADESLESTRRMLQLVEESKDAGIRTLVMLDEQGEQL

T2: SNAP25 Peptide 1 (PEP1) (Homo sapiens, UniProt P60880 SEQ:1-35)
T2 chain: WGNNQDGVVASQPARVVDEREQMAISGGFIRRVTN

B1: PEP 4.04 (ssDNA)
DNA: TTTTTAAGCCCACGATCCTGTGCTTCGCACAGCTCGAGCTAGTGGGCCCATG
B2: PEP 4.06 (ssDNA)
DNA: TTTTTAAGCCCACGAGAGTTCGATAGTCACAGATTGGCACCGTCGTGCCATG
B3: PEP 4.11 (ssDNA)
DNA: TTTTTAAGCCCACCCGAGTTCGTCCAGCGAACCACGCGCGTGTCGTGCCATG
B4: PEP 4.17 (ssDNA)
DNA: TTTTTAAGCCCACGCCAGTTCGGTCAACGAACTACGGTGATGTGGGCCCATG
B5: PEP 4.14 (ssDNA)
DNA: TTTTTAAGCCCACAAAAGTTCGGGCAGCACAGGTCGCTGAGGTCGTGCCATG
B6: PEP 4.05 (ssDNA)
DNA: TTTTTAAGCCCACATAAGTTCGCAAGTCACAGCGATGTGATGTCGTGCCATG
B7: PEP 4.07 (ssDNA)
DNA: TTTTTAAGCCCACTCGTGTTCGCACACCGAACCACAAGCTAGTGGGCCCATG
B8: PEP 4.08 (ssDNA)
DNA: TTTTTAACACGACCATTCTGTGCCAGCCGAACTCCGTGCTGGTGGGCCCATG
B9: PEP 4.16 (ssDNA)
DNA: TTTTTAACACGACAGACCTGTGATGGTCGAACTCCATGCATGTGGGCCCATG
B10: PEP 4.20 (ssDNA)
DNA: TTTTTAAGCCCACACGTGTTCGGATCGCACAGTTATTGGCAGTCGTGCCATG
B11: PEP 4.22 (ssDNA)
DNA: TTTTTAAGCCCACGGTGCTGTGGAAGCCACAGTACAATGGAGTGGGCCCATG
B12: PEP 4.03 (ssDNA)
DNA: TTTTTAACACGACAGGGGTTCGTAGGACACAGGTTGATGTTGTGGGCCCATG
B13: PEP 4.12 (ssDNA)
DNA: TTTTTAACACGACAGCCCTGTGCAGGCCGAACGGCGTTGATGTCGTGCCATG
B14: PEP 4.10 (ssDNA)
DNA: TTTTTAAGCCCACAAGACTGTGCGTCGCACAGATTGGCATCGTCGTGCCATG
B15: PEP 4.02 (ssDNA)
DNA: TTTTTAAGCCCACTACTGTTCGAAGGGCACAGTCCAGGCCGGTGGGCCCATG
B16: PEP 4.18 (ssDNA)
DNA: TTTTTAACACGACTATTCTGTGAGTCTCGAACTGCGACAACGTGGGCCCATG
B17: PEP 4.01 (ssDNA)
DNA: TTTTTAAGCCCACAAGCGTTCGGCTCTCACAGATCGTTGACGTGGGCCCATG
B18: PEP 4.19 (ssDNA)
DNA: TTTTTAAGCCCACAAGCGTTCGGCTCTCATAGATCGTTGACGTGGGCCCATG
B19: PEP 4.09 (ssDNA)
DNA: TTTTTAACACGACATATGTTCGACGGACACAGTGTGTGGCGGTCGTGCCATG
B20: PEP 4.13 (ssDNA)
DNA: TTTTTAAGCCCACGGCCGTTCGGCCACCACAGTGTGGCAGCGTCGTGCCATG
B21: PEP 4.15 (ssDNA)
DNA: TTTTTAACACGACGTGACTGTGAGAGGCACAGTTTGGGGGCGTGGGCCCATG
B22: PEP 4.21 (ssDNA)
DNA: TTTTTAAGCCCACGGGGCTGTGAGCAACGAACATTGGCACAGTCGTGCCATG
B23: PEP 2.02 (ssDNA)
DNA: TTTTTAAGCCCACATACGTTCGATGGTCACAGATTGGGCAAGTCGTGCCATG
modifications: W indole, X amine, Y phenol modified dU [15,19,20,24,27,34,35,43,46]
B24: PEP 2.01 (ssDNA)
DNA: TTTTTAACACGACGTTACTGTGGTCACCACAGGATGAGCCTGTCGTGCCATG
modifications: W indole, X amine, Y phenol modified dU [15,16,19,24,35,43,46]
B25: PEP 1.02 (ssDNA)
DNA: TTTTTAACACGACCATCCTGTGCCTCACGAACTCATTGCCCGTCGTGCCATG
modifications: W indole, X amine, Y phenol modified dU [16,19,25,36,43,46]
B26: PEP 1.22 (ssDNA)
DNA: TTTTTAACACGACTTGGGTTCGGAAGGCGAACCGCAGCAATGTGGGCCCATG
modifications: W indole, X amine, Y phenol modified dU [14,15,19,20]
B27: PEP 1.17 (ssDNA)
DNA: TTTTTAACACGACGGCGGTTCGCCTCCCGAACGTTGTTGGAGTCGTGCCATG
modifications: W indole, X amine, Y phenol modified dU [19,38 (W indole dU); 20,34,35,46 (Y phenol dU); 25,43 (X amine dU)]
B28: PEP 1.20 (ssDNA)
DNA: TTTTTAACACGACGAACCTGTGCTCAACACAGAACATCACAGTGGGCCCATG
modifications: W indole, X amine, Y phenol modified dU [19,24]
B29: PEP 1.19 (ssDNA)
DNA: TTTTTAACACGACATAGCTGTGACAGGCACAGGTCATGGGAGTCGTGCCATG
modifications: W indole, X amine, Y phenol modified dU [15,19,34,43,46]
B30: PEP 1.24 (ssDNA)
DNA: TTTTTAACACGACCGCCCTGTGGGCAACACAGGGATCTGCAGTCGTGCCATG
modifications: W indole, X amine, Y phenol modified dU [19,36,38,43,46]
B31: PEP 1.18 (ssDNA)
DNA: TTTTTAACACGACCACCCTGTGCAAGGCGAACTCCGTCAAAGTGGGCCCATG
modifications: W indole, X amine, Y phenol modified dU [19]
B32: PEP 1.23 (ssDNA)
DNA: TTTTTAAGCCCACTTCACTGTGGCTCGCACAGGCCGATGGGGTCGTGCCATG
modifications: W indole, X amine, Y phenol modified dU [14,15,19,25,38,43,46]
B33: PEP 1.21 (ssDNA)
DNA: TTTTTAAGCCCACCGGTCTGTGGTTCCCACAGTGCATGCGAGTGGGCCCATG
modifications: W indole, X amine, Y phenol modified dU [17,19,24,25]
B34: PEP 1.16 (ssDNA)
DNA: TTTTTAACACGACGGGCCTGTGAACACCGAACTGATGGGTCGTGGGCCCATG
modifications: W indole, X amine, Y phenol modified dU [19 (Y phenol dU); 36,40 (W indole dU)]
B35: PEP 1.01 (ssDNA)
DNA: TTTTTAACACGACGCGACTGTGAGAGGCACAGTTTGGGGGCGTGGGCCCATG
modifications: W indole, X amine, Y phenol modified dU [19,34,35]

One data set deals with SNAP25 Peptide 4 (PEP4, BoNT/A cleavage site region) (Homo sapiens, UniProt P60880 SEQ:1-24). Kind of data set: ELONA. The note with it: label: biotin.
Chain of SNAP25 Peptide 4 (PEP4, BoNT/A cleavage site region) (P60880 174-197): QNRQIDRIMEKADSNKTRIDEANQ
Take B1: the binding signal came to 186 ELISA signal. Regarding B2, the binding signal was 131 ELISA signal.

In turn, B3 came in with a binding signal of 67 ELISA signal. In turn, B4 registered a binding signal of 24 ELISA signal. The molecule B5 displayed a binding signal of 37 ELISA signal. Molecule B6 returned a binding signal of 170 ELISA signal. Molecule B7 gave a binding signal of 105 ELISA signal. On the same count and under the same terms, as for B8, the figure is 94 ELISA signal; as for B9, 35 ELISA signal; as for B10, 18 ELISA signal. B11 came in with a binding signal of 17 ELISA signal. On to B12, for which the binding signal is 202 ELISA signal.

On to B13, for which the binding signal was determined as 61 ELISA signal. Regarding B14, the binding signal stood at 76 ELISA signal. Turning to B15, the binding signal was 208 ELISA signal. The molecule B16 displayed a binding signal of 18 ELISA signal. Still for that read-out and setting: as for B17, the figure is 257 ELISA signal; as for B18, 18 ELISA signal. B19 gave a binding signal of 85 ELISA signal. Regarding B20, the binding signal was 57 ELISA signal. For B21, the binding signal was determined as 37 ELISA signal.

Turning to B22, the binding signal turned out to be 18 ELISA signal.

Another data set concerns the target T1, SNAP25 Peptide 2 (PEP2). Kind of data set: ELONA.
Conditions: not given
An excerpt:
(§1) The data in Table 2 was collected by running direct ELISA assays on the 96 X-aptamers, elucidating their ability to bind SNAP25, SNAP25 fragments (PEP1, PEP2, PEP3, and PEP4), and a negative control. The X-aptamers were biotinylated and immobilized onto streptavidin-coated plates and were utilized as detection molecules. Higher numbers represent strong binding. The negative control peptide is a random peptide to measure the amount of binding that occurs to a random amino acid sequence.
In the case of B23, the binding signal stood at 394 ELISA signal. Molecule B24 gave a binding signal of 592 ELISA signal.

The target in another data set is T2, SNAP25 Peptide 1 (PEP1). The data set can be described thus: ELONA.
Conditions: not given
From the text: as §1
For the molecule B25, the binding signal was found to be 742 ELISA signal.

B26: the binding signal is 184 ELISA signal. Take B27: the binding signal came out at 200 ELISA signal. As to B28, the binding signal is 188 ELISA signal. B29 registered a binding signal of 200 ELISA signal. The molecule B30 came in with a binding signal of 160 ELISA signal.

Molecule B31 gave a binding signal of 200 ELISA signal. On to B32, for which the binding signal was determined as 168 ELISA signal.

As for B33, the binding signal worked out at 188 ELISA signal.

For B34, the binding signal turned out to be 212 ELISA signal.

The molecule B35 came in with a binding signal of 2240 ELISA signal.
